Test results from the RNAGym collection of RNA variant scans (doi:10.1093/molbev/msab373).

B1: Azoarcus group I ribozyme (parent)
chain: GUGCCUUGCGCCGGGAAACCACGCAAGGGAUGGUGUCAAAUUCGGCGAAACCUAAGCGCCCGCCCGGGCGUAUGGCAACGCCGAGCCAAGCUUCGGCGCCUGCGCCGAUGAAGGUGUAGAGACUAGACGGCACCCACCUAAGGCAAACGCUAUGGUGAAGGCAUAGUCCAGGGAGUGGCGAAAGUCACACAAACCGG

Variants of: B1
Assay: reverse-splicing fitness (ratio to wild type); higher = more active; in vitro selection; Mg2+ level not given
In short: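 An in vitro group I ribozyme library with randomized positions was T7-transcribed and gel-purified. In triplicate, 10 pmol RNA in EPPS pH 7.5 was reacted with 50 pmoles of a 30-nt RNA substrate for 1 h at 37 °C across several added MgCl2 levels (1–48 mM), then stopped with EDTA. Products were reverse transcribed from a substrate-complementary primer, PCR-amplified and sequenced (HiSeq 4000). Fitness is a variant's read proportion after selection over that before, normalised to wild type.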
For C82U A111C A120C C150A C169U, the reverse-splicing fitness was 0.0128. Variant C82U A111C A120C C150A C169A has a reverse-splicing fitness of 0.00879. Variant C82U A111C A120C C150A C169G has a reverse-splicing fitness of 0.00864. In the case of C82U A111C A120C C150U U176C, the reverse-splicing fitness is reported as 0.0168. In the case of C82U A111C A120C C150U U176G, the reverse-splicing fitness is reported as 0.00627. In the case of C82U A111C A120C C150U U176A, the reverse-splicing fitness is reported as 0.00888. C82U A111C A120C A145G C169G U176G gave a reverse-splicing fitness of 0.0058. C82U A111C A120C A145G C169G U176C gave a reverse-splicing fitness of 0.0254. Variant C82U A111C A120C A145G C169G U176A has a reverse-splicing fitness of 0.0195. C82U A111C A120C A145C C169U U176G showed a reverse-splicing fitness of 0.00426. In the case of C82U A111C A120C A145C C169U U176C, the reverse-splicing fitness is reported as 0.0147. With C82U A111C A120C A145C C169U U176A the reverse-splicing fitness was 0.0162. Work on C82U A111C A120G A145C C150G C169A U176C yielded a reverse-splicing fitness of 0.00509. Variant C82U A111C A120G A145C C150G C169A U176G has a reverse-splicing fitness of 0.00441. C82U A111C A120G A145C C150G C169A U176A showed a reverse-splicing fitness of 0.00754. Work on C82U A111C A120C A145U yielded a reverse-splicing fitness of 0.028. For C82U A111C A120C A145G, the reverse-splicing fitness was 0.0265. C82U A111C A120C A145C showed a reverse-splicing fitness of 0.0222. Work on C82U A111C A120C A145U C150G U176A yielded a reverse-splicing fitness of 0.00578. C82U A111C A120C A145U C150G U176C gave a reverse-splicing fitness of 0.00923. C82U A111C A120C A145U C150G U176G showed a reverse-splicing fitness of 0.00321. With C82U A111C A120G A145C C150U U176G the reverse-splicing fitness was 0.00354. For C82U A111C A120G A145C C150U U176A, the reverse-splicing fitness was 0.00933. C82U A111C A120G A145C C150U U176C gave a reverse-splicing fitness of 0.00988. C82U A111C A120C A145G C150U C169G U176G gave a reverse-splicing fitness of 0.00547. With C82U A111C A120C A145G C150U C169G U176A the reverse-splicing fitness was 0.0115. C82U A111C A120C A145G C150U C169G U176C gave a reverse-splicing fitness of 0.0151. For C82U A111C A120C U176A, the reverse-splicing fitness was 0.0154. In the case of C82U A111C A120C U176C, the reverse-splicing fitness is reported as 0.0215. For C82U A111C A120C U176G, the reverse-splicing fitness was 0.00517. In the case of C82U A111C A120G A145C C150G U176A, the reverse-splicing fitness is reported as 0.00659. In the case of C82U A111C A120G A145C C150G U176C, the reverse-splicing fitness is reported as 0.0106. Variant C82U A111C A120G A145C C150G U176G has a reverse-splicing fitness of 0.00269. C82U A111C A120C A145C C150G U176A showed a reverse-splicing fitness of 0.00512. For C82U A111C A120C A145C C150G U176G, the reverse-splicing fitness was 0.00262. C82U A111C A120C A145C C150G U176C gave a reverse-splicing fitness of 0.00717. C82U A111C A120C A145U C169G showed a reverse-splicing fitness of 0.00753. C82U A111C A120C A145U C169U showed a reverse-splicing fitness of 0.0103. With C82U A111C A120C A145U C169A the reverse-splicing fitness was 0.00732. In the case of C82U A111C A120C A145U C150U C169G U176C, the reverse-splicing fitness is reported as 0.0142. With C82U A111C A120C A145U C150U C169G U176G the reverse-splicing fitness was 0.00521. C82U A111C A120C A145U C150U C169G U176A showed a reverse-splicing fitness of 0.0126. C82U A111C A120C A145C C169A U176A showed a reverse-splicing fitness of 0.0111. C82U A111C A120C A145C C169A U176C gave a reverse-splicing fitness of 0.00743. C82U A111C A120C A145C C169A U176G gave a reverse-splicing fitness of 0.00387. C82U A111C A120C A145U C150A U176G showed a reverse-splicing fitness of 0.00561. For C82U A111C A120C A145U C150A U176A, the reverse-splicing fitness was 0.00905. Variant C82U A111C A120C A145U C150A U176C has a reverse-splicing fitness of 0.0135. For C82U A111C A120C A145C U176G, the reverse-splicing fitness was 0.00562. Work on C82U A111C A120C A145C U176C yielded a reverse-splicing fitness of 0.0155. C82U A111C A120C A145C U176A showed a reverse-splicing fitness of 0.00981. With C82U A111C A120C A145U C150G C169G U176A the reverse-splicing fitness was 0.00759. For C82U A111C A120C A145U C150G C169G U176G, the reverse-splicing fitness was 0.00558. C82U A111C A120C A145U C150G C169G U176C showed a reverse-splicing fitness of 0.0066. C82U A111C A120C A145G C150G U176A gave a reverse-splicing fitness of 0.00676. C82U A111C A120C A145G C150G U176C gave a reverse-splicing fitness of 0.00988. Work on C82U A111C A120C A145G C150G U176G yielded a reverse-splicing fitness of 0.00622. Variant C82U A111C A120G A145C C169G U176A has a reverse-splicing fitness of 0.0216. C82U A111C A120G A145C C169G U176C gave a reverse-splicing fitness of 0.0122. Work on C82U A111C A120G A145C C169G U176G yielded a reverse-splicing fitness of 0.00397. C82U A111C A120G A145C C169A U176C gave a reverse-splicing fitness of 0.00533. With C82U A111C A120G A145C C169A U176G the reverse-splicing fitness was 0.00336. Variant C82U A111C A120G A145C C169A U176A has a reverse-splicing fitness of 0.00788. C82U A111C A120C A145G C150G C169U U176G gave a reverse-splicing fitness of 0.007. C82U A111C A120C A145G C150G C169U U176A gave a reverse-splicing fitness of 0.0111. Variant C82U A111C A120C A145G C150G C169U U176C has a reverse-splicing fitness of 0.0122. In the case of C82U A111C A120G A145C C150G C169G U176G, the reverse-splicing fitness is reported as 0.00437. Work on C82U A111C A120G A145C C150G C169G U176A yielded a reverse-splicing fitness of 0.00836. Variant C82U A111C A120G A145C C150G C169G U176C has a reverse-splicing fitness of 0.00632. For C82U A111C A120G A145C C150U C169G, the reverse-splicing fitness was 0.00662. In the case of C82U A111C A120G A145C C150U C169U, the reverse-splicing fitness is reported as 0.00593. With C82U A111C A120G A145C C150U C169A the reverse-splicing fitness was 0.00786. C82U A111C A120C A145C C150A C169A U176C showed a reverse-splicing fitness of 0.00754. Work on C82U A111C A120C A145C C150A C169A U176G yielded a reverse-splicing fitness of 0.00679. With C82U A111C A120C A145C C150A C169A U176A the reverse-splicing fitness was 0.0113. With C82U A111C A120C A145C C150G C169U the reverse-splicing fitness was 0.00884. For C82U A111C A120C A145C C150G C169A, the reverse-splicing fitness was 0.00861. With C82U A111C A120C A145C C150G C169G the reverse-splicing fitness was 0.00681. Work on C82U A111C A120C A145U U176A yielded a reverse-splicing fitness of 0.0118. With C82U A111C A120C A145U U176G the reverse-splicing fitness was 0.00547. Variant C82U A111C A120C A145U U176C has a reverse-splicing fitness of 0.0181. In the case of C82U A111C A120G A145C C150A C169G U176C, the reverse-splicing fitness is reported as 0.0127. For C82U A111C A120G A145C C150A C169G U176G, the reverse-splicing fitness was 0.00512. In the case of C82U A111C A120G A145C C150A C169G U176A, the reverse-splicing fitness is reported as 0.0204.
